According to US20020115613A1, “Treatment of prostate cancer” (priority 2001, published 2002):

B1: Tumor necrosis factor α—Related Apoptosis Inducing Ligand (protein, UniProt P50591 1-281, looked up)
Tumor necrosis factor ligand …: MAMMEVQGGPSLGQTCVLIVIFTVLLQSLCVAVTYVYFTNELKQMQDKYSKSGIACFLKEDDSYWDPNDEESMNSPCWQVKWQLRQLVRKMILRTSEETISTVQEKQQNISPLVRERGPQRVAAHITGTRGRSNTLSSPNSKNEKALGRKINSWESSRSGHSFLSNLHLRNGELVIHEKGFYYIYSQTYFRFQEEIKENTKNDKQMVQYIYKYTSYPDPILLMKSARNSCWSKDAEYGLYSIYQGGIFELKENDRIFVSVTNEHLIDMDHEASFFGAFLVG
notes: 281 amino acid type II transmembrane protein of the tumor necrosis factor α family; purchased from Biomol

Legend:
Format in all cases: cell-based
[1] = test system: LNCaP C4-2 cells; test: Western blotting of death receptors, caspases, Bid, cytochrome c, Akt; settings: LNCaP C4-2; for DR4 levels: FIG. 2B
Description: (§1) LNCaP were obtained from American Type Culture Collection (Rockville, Md.) and LNCaP C4-2 cells were purchased from Urocor Inc., Oklahoma City, Okla. Cells were grown in RPMI 1640 medium supplemented with 10% (LNCaP) or 5% (LNCaP C4-2) fetal bovine serum (Hyclone, Logan, Utah) and grown in the presence of 5% CO2 at 37° C. Cells were treated with 10 μM Mifepristone (Sigma, St. Louis, Mo.) for three days or with increasing concentrations (from 200 ng/ml to 600 ng/ml) of TRAIL (Biomol Research Laboratories, Inc., Plymouth Meetings, Pa.) for varying time intervals 2, 4, 6, 8, 16, 20 and 24 hours (hr). Thus, for treatment with Mifepristone, cells were treated with Mifepristone for three days and then some cells treated (without washing) with TRAIL for indicated periods. Upon completion of the experiment, cells were harvested, and total proteins, cytosol or mitochondrial fractions were isolated as described below. At least three experiments were conducted with a minimum of four plates per treatment per experiment.
(§2) For experiments using inhibitors, the cells were pre-treated with increasing concentrations of the inhibitors (10 μM to 100 μM) for one hr and then with TRAIL. Caspase-8-specific (Z-IETD-FMK) and caspase-9-specific ([…]) inhibitors were purchased from Enzyme Systems Products, Livermore, Calif. The inhibitors were dissolved in DMSO; to limit cellular toxicity, care was taken not to exceed 0.2% DMSO in the culture medium. Appropriate controls included vehicle treated cells with or without the inhibitors.
(§3) Cells were harvested by trypsinization, washed in 1×PBS and cell pellets resuspended in lysis buffer (100 mM Tris-HCl pH 8.0, 0.1% Triton X 100 and protease inhibitor cocktail from Roche Diagnostic Corporation, Indianapolis, Ind.). Cells were incubated over ice for 30 min and centrifuged at 10,000 g at 4° C. for 10 min. The supernatant was collected and the protein concentration estimated using Bio-Rad protein reagent (Bio-Rad Laboratories, Hercules, Calif.).
(§4) Proteins (50 μg, unless stated otherwise) were separated on NuPAGE 10% Bis-Tris gels (Novex pre-cast mini gels, InVitrogen, Carlsbad, Calif.) at 100 volts for 1 hour in the presence of 1×MES-SDS running buffer (InVitrogen, Carlsbad, Calif.). Separated proteins were transferred to (PVDF) membranes (Bio-Rad Laboratories, Hercules, Calif.) at 42 volts for 2.5 hr using a Novex XCell II blotting apparatus in MES transfer buffer in the presence of NuPAGE antioxidant. Transfer of the proteins to the polyvinylidene difluoride (PVDF) membrane was confirmed by staining with Ponceau S (Sigma, St. Louis, Mo.). The blots were blocked in 5% non-fat dry milk in TBS, washed twice for 10 min each with TBS containing 0.1% Tween-20 and incubated for 2 hr at RT with primary antibody diluted in TBS containing 0.5% milk.
(§5) The following antibodies were used in the immunoblots: DR4, DR5 and cytochrome c (Imgenex, San Diego, Calif.), BID (BioSource International, Camarillo, Calif.), caspases-8, -9, and Akt (Cell Signaling Technology, Beverely, Mass.), caspase-3 (BD Pharmingen, San Diego, Calif.) Iκβ and XIAP (Cell Signaling Technology, Beverly, Mass.), cFLIP (StressGen Biotechnology Corp, Victoria, Canada), actin (Sigma Chemical Co., St. Louis, Mo.) and Cox II (Molecular Probes, Eugene, Oreg.). Immunoreactive bands were visualized using ECL detection system (Amersham, Pharmacia Biotech, Arlington Heights, Ill.) and signals were developed after exposure to X-ray film (X-Omat films, Eastman Kodak Company, Rochester, N.Y.).
(§6) For separation of mitochondrial and cytosolic fractions, cells were trypsinized, centrifuged at 600 g for 10 min at 4° C., washed twice in ice-cold PBS and re-suspended in buffer A (20 mM HEPES-KOH, pH 7.2, 10 mM KCl, 1.5 mM MgC12, 1 mM sodium-EDTA, 1 mM sodium-EGTA, 250 mM sucrose and protease inhibitor cocktail). Cells were homogenized on ice with a glass Dounce homogenizer (30 strokes) and were centrifuged at 750 g for 5 min at 4° C. […]

[2] = test system: LNCaP cells; test: as above; settings: LNCaP; for DR4 levels / expression of DR5: FIG. 2A
Description: as §1, §2, §3, §4, §5, §6

[3] = test system: LNCaP C4-2 cells; test: Apoptosense assay (M30 ELISA, cleaved cytokeratin 18)
Description: as §1, with “experiment. Two methods were used to measure induction of apoptosis by drug treatment: the MTT assay and the Apoptosense assay. The MTT assay measures mitochondrial enzyme activity and is indicative of the number of surviving cells. […] Cells were plated in petri dishes and after completion of the treatment, cells were harvested and total protein extracted as described below. […] Color was developed by adding tetramethylbenzidine solution and the optical density of the bound antibody was determined at 450 nm on a Spectra MAX 340 microplate reader (Molecular Devices, Menlo Park, Calif.). Standard solution supplied by the supplier was used for generating standard curves.” for “experiment.”

Molecule	DR4 levels [1]	activation of procaspase-8 ([1]; FIG. 3B)	induction of caspase-3 ([1]; FIG. 3D)	DR4 levels [2]	expression of DR5 [2]	activation of procaspase-8 ([2]; FIG. 3A)	activation of caspase-3 ([2]; FIG. 3C)	activation of caspase-7 in TRAIL-treated cells after pre-treatment with Mifepristone ([2]; Mifepristone pre-treatment, then TRAIL, FIG. 3C)	M30 activity (in words) [3]	cytochrome c levels in cytosol ([1]; FIG. 5B)	phosphorylated Akt ([2]; 15 min, FIG. 8)	truncated Bid (tBid) ([2]; FIG. 3A)	activation of caspase-7 ([2]; FIG. 3C)	cytochrome c levels in cytosol ([2]; FIG. 5A)	M30 activity ([3]; between 8 hr to 20 hr treatment, FIG. 1D)
CC#C[C@]1(O)CC[C@H]2[C@@H]3CCC4=CC(=O)CCC4=C3[C@@H](c3ccc(N(C)C)cc3)C[C@@]21C [Mifepristone]	did not show significant changes	small increase in the activation of caspase-8	nor is it effective in inducing caspase-3	did not show significant changes	significant increase	small increase in the activation of caspase-8	activates caspase-3	activated caspase-7 by 4 hr	lower M30 activity	–	–	–	–	–	–
B1	did not show significant changes	–	–	did not show significant changes	did not increase significantly	decrease in the 57 KDa procaspase-8 protein as early as 2 hr	yielded cleaved 17 KDa caspase-3 product by 2 hr	–	–	increased cytochrome c levels in cytosol within 15 min	slightly decreased phosphorylated Akt	tBid was noted by 2 hr	activated caspase-7 by 20 hr	increased cytochrome c levels in cytosol within 15 min	1.4-2.0 U/ug
